The text below walks through data of paper PMC7835222, “PRMT3 interacts with ALDH1A1 and regulates gene-expression by inhibiting retinoic acid signaling” (Communications Biology, 2021).

In the assay the target is T1, GST-tagged PRMT3 full-length protein (pGEX-PR-FL) (human, UniProt O60678-1 1-531).
T1 construct: Protein arginine methyltransferase 3 (PRMT3), human, full length; pGEX-6P2 vector; the legends mark a degraded GST-PRMT3 band beside the full-length one; also called GST-PRMT3; GST-PRMT3-FL
The assay is described as follows: pull-down; 15 µg GST-PRMT3 (wild type or mutant) on Glutathione Sepharose, 15 µg His-tagged AL-FL in solution, with or without 200 µM SAM or SAH; 20 mM HEPES pH 7.5, 150 mM KCl, 0.2 mM DTT, 1 mM EDTA, 10% glycerol; 4 °C, 10 h; blot with His antibody. To be noted: both partners purified.

T1 sequence (O60678 whole entry): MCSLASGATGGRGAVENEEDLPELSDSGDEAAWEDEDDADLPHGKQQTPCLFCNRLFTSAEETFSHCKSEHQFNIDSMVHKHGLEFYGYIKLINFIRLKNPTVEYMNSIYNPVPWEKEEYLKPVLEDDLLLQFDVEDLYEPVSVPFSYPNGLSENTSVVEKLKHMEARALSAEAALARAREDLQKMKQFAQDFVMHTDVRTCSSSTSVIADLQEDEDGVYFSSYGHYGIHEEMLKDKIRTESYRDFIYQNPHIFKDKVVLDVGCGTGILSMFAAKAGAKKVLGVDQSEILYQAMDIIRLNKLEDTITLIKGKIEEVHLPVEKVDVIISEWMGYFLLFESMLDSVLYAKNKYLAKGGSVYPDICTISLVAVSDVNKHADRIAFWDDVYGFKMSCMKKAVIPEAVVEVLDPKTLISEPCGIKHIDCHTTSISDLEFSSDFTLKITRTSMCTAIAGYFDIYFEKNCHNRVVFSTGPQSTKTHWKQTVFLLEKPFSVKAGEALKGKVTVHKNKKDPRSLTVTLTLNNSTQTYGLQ

B1: His-tagged ALDH1A1 full length (pET28a-AL-FL) (enzyme, human, UniProt P00352 1-501, looked up)
chain: MSSSGTPDLPVLLTDLKIQYTKIFINNEWHDSVSGKKFPVFNPATEEELCQVEEGDKEDVDKAVKAARQAFQIGSPWRTMDASERGRLLYKLADLIERDRLLLATMESMNGGKLYSNAYLNDLAGCIKTLRYCAGWADKIQGRTIPIDGNFFTYTRHEPIGVCGQIIPWNFPLVMLIWKIGPALSCGNTVVVKPAEQTPLTALHVASLIKEAGFPPGVVNIVPGYGPTAGAAISSHMDIDKVAFTGSTEVGKLIKEAAGKSNLKRVTLELGGKSPCIVLADADLDNAVEFAHHGVFYHQGQCCIAASRIFVEESIYDEFVRRSVERAKKYILGNPLTPGVTQGPQIDKEQYDKILDLIESGKKEGAKLECGGGPWGNKGYFVQPTVFSNVTDEMRIAKEEIFGPVQQIMKFKSLDDVIKRANNTFYGLSAGVFTKDIDKAITISSALQAGTVWVNCYGVVSAQCPFGGFKMSGNGRELGEYGFHEYTEVKTVTVKISQKNS
notes: Retinal dehydrogenase 1 (ALDH1A1), human, full length; pET28a vector; also called His-tagged AL-FL
For the molecule B1, the binding result is on record as “binds”.
